Consider four molecules from US20260217796A1 (NANJING GENSCRIPT BIOTECH, published 2026).

B1: 33G5-3 (antibody, V domains shown)
VH: QSVEESGGRLVTPGTPLTLTCTVSGIDLSSYAMSWVRQAPGKGLEWIGTINSDNYRYFGSWAKGRFTISKTSTTVDLKITSPTTEDTATYFCARQRGTSSGNAMDLWGPGTLVTVSS
VL: DVVMTQTPASVSAALGGTVTIKCQASQSIGSYLNWYQQKPGQPPKLLIYAASTLAYGVSSRFRGSGSGTEFTLTISDLECADAATYYCQTYYISDSSSHVFGGGTEVVVK
notes: Expressed recombinantly in ExpiCHO-S cells, purified on protein A as IgG and detected with anti-rabbit IgG (Fc-specific); also called anti-AAV2 rabbit monoclonal antibody 33G5-3; Biotin-33G5-3
B2: 19E10-3 (antibody, V domains shown)
VH: QSLEESGGDLVKPGSSLTLTCTASRFSFSGDYDMCWVRQAPGKGLEWIACIGAGDAITYYTNWARGRFTITYTSSTTMTLQLTSLTVADTAAYFCAAGADFAFKLWGPGTLVTVSS
VL: DIVMTQTPASVEAAVGGTVTIKCQASQSIMSLLAWYQQKPGQPPKLLIYEASKLASGVPSRFSGSGSGTQFTLTISDLECADAATYYCQGYVESSGRHYRFWAFGGGTEVVVK
notes: Expressed recombinantly in ExpiCHO-S cells, purified on protein A as IgG and detected with anti-rabbit IgG (Fc-specific); also called anti-AAV2 rabbit monoclonal antibody 19E10-3; combination C
B3: 8H8-1 (antibody, V domains shown)
VH: QSLVESGGGLVQPEGSLTLTCTASGFSFSNVYYMCWVRQAPGKGPDWIACIYINADSTYYPSWATGRFTISKTSSTTVTLQMTSLTAADTATYFCARVAAYYDVYFNLWGPGTVVTVSS
VL: AVVMTQTASPVSAAVGGTVTINCQASQSISSSYLSWYQQKPGQPPKLLIYYASILTSGVPSRFKGSGDGTEYSLTISGVQCDDAATYYCLYGRYSGASIDTVFGGGTEVVVK
notes: Expressed recombinantly in ExpiCHO-S cells, purified on protein A as IgG and detected with anti-rabbit IgG (Fc-specific); also called anti-AAV2 rabbit monoclonal antibody 8H8-1; combination A
B4: 15G4-4 (antibody, V domains shown)
VH: QSVEESGGRLVTPGTPLTLTCTVSGFSLNSYTVNWVRQAPGKGLEWIGFISGGSGITNYATWAKGRFTISKTSTTVDLKLPSPTTEDTATYFCARGRYPGYGGDDYEDYYFNLWGQGTLVTVSS
VL: DVVMTQTQASVSAAVGGTVTIKCQASESIGSYLAWYQQKPGQPPRLLIYQASTLASGVSSRFKGSGSGTQFTLTISDLECDDAATYYCQGEFSCDGAHCNAFGGGTEVVVK
notes: Expressed recombinantly in ExpiCHO-S cells, purified on protein A as IgG and detected with anti-rabbit IgG (Fc-specific); also called anti-AAV2 rabbit monoclonal antibody 15G4-4; combination B

In general, EC50 refers to the concentration that produces a half-maximal response.

For this assay, the target named is T1, recombinant AAV2 virus-like particles (VLPs) of capsid proteins VP1, VP2 and VP3 (AAV2, UniProt P03135 1-735; P03135 139-735; P03135 203-735).
T1 construct: also called AAV2 VLP; antigen
T1 sequence (P03135 whole entry, chain 1 of 3): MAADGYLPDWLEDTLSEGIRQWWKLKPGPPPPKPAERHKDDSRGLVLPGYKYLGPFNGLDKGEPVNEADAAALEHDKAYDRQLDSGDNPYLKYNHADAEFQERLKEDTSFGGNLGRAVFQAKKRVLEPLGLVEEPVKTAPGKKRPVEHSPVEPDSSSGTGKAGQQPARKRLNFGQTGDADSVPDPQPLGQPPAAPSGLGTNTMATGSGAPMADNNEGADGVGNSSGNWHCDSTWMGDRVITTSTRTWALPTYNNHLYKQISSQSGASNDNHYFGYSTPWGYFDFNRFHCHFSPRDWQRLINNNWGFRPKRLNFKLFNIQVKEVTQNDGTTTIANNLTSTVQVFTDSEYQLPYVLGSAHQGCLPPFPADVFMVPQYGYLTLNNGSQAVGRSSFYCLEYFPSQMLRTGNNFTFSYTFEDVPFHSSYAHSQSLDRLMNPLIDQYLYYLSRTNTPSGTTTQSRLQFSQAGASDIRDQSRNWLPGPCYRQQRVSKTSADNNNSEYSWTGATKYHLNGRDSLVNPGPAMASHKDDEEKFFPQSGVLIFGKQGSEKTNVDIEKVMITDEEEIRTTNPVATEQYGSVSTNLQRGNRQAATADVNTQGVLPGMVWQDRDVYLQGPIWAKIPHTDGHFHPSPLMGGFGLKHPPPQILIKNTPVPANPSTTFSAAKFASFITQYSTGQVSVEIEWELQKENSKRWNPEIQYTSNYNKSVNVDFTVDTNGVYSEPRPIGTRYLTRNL
T1 sequence (P03135 139-735, tags left off, chain 2 of 3): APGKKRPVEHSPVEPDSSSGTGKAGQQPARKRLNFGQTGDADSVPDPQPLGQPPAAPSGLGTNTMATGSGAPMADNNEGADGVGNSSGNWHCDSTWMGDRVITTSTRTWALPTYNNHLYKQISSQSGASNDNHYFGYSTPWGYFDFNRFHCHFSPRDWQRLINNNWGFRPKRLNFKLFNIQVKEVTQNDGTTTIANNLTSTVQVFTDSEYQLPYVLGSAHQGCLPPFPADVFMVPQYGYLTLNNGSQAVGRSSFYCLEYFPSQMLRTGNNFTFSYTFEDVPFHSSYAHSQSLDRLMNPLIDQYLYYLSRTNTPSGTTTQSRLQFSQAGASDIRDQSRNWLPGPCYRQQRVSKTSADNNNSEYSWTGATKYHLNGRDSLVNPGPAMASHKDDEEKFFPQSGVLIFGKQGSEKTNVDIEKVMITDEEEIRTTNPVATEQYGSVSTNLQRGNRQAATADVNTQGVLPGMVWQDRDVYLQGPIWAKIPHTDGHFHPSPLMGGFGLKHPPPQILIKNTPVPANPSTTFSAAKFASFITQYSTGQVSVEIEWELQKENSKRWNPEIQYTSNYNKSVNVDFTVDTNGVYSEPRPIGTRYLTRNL
T1 sequence (P03135 203-735 limits assumed, chain 3 of 3): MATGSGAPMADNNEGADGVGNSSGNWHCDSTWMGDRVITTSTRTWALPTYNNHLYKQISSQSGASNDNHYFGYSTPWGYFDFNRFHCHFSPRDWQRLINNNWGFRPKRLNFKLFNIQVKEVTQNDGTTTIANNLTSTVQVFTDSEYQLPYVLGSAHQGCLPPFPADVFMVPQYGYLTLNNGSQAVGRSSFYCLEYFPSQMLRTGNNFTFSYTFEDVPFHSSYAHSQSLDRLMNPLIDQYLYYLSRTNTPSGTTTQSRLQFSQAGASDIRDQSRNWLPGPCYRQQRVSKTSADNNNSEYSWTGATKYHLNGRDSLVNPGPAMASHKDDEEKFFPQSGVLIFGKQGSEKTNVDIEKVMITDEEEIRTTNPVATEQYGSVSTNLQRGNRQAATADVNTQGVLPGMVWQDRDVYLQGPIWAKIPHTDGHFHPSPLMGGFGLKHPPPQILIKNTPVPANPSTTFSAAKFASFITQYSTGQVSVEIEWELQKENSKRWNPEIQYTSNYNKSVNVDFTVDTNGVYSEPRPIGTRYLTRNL
Briefly: indirect ELISA, plate coated with 1 ug/mL AAV2 VLP, 3-fold antibody dilutions from 1 ug/mL. On the technique in general: In an ELISA, binding on a coated surface is turned into a signal by an enzyme label.
As for B1, the concentration for a half-maximal effect (EC50) worked out at 1.62 ng/mL. With B2, the EC50 was determined as 3.94 ng/mL. Next, B3: 1.46 ng/mL; B4: 1.77 ng/mL.
